Laboratory results as given in IntAct's records for PubMed 29039417.

B1: Protein PTHB1 (Homo sapiens), Q3SYG4 (parent)
chain: MSLFKARDWWSTILGDKEEFDQGCLCLANVDNSGNGQDKIIVGSFMGYLRIFSPHPAKTGDGAQAEDLLLEVDLRDPVLQVEVGKFVSGTEMLHLAVLHSRKLCVYSVSGTLGNVEHGNQCQMKLMYEHNLQRTACNMTYGSFGGVKGRDLICIQSMDGMLMVFEQESYAFGRFLPGFLLPGPLAYSSRTDSFLTVSSCQQVESYKYQVLAFATDADKRQETEQQKLGSGKRLVVDWTLNIGEQALDICIVSFNQSASSVFVLGERNFFCLKDNGQIRFMKKLDWSPSCFLPYCSVSEGTINTLIGNHNNMLHIYQDVTLKWATQLPHIPVAVRVGCLHDLKGVIVTLSDDGHLQCSYLGTDPSLFQAPNVQSRELNYDELDVEMKELQKIIKDVNKSQGVWPMTEREDDLNVSVVVSPNFDSVSQATDVEVGTDLVPSVTVKVTLQNRVILQKAKLSVYVQPPLELTCDQFTFEFMTPDLTRTVSFSVYLKRSYTPSELEGNAVVSYSRPTDRNPDGIPRVIQCKFRLPLKLICLPGQPSKTASHKITIDTNKSPVSLLSLFPGFASQSDDDQVNVMGFHFLGGARITVLASKTSQRYRIQSEQFEDLWLITNELILRLQEYFEKQGVKDFACSFSGSIPLQEYFELIDHHFELRINGEKLEELLSERAVQFRAIQRRLLARFKDKTPAPLQHLDTLLDGTYKQVIALADAVEENQGNLFQSFTRLKSATHLVILLIALWQKLSADQVAILEAAFLPLQEDTQELGWEETVDAAISHLLKTCLSKSSKEQALNLNSQLNIPKDTSQLKKHITLLCDRLSKGGRLCLSTDAAAPQTMVMPGGCTTIPESDLEERSVEQDSTELFTNHRHLTAETPRPEVSPLQGVSE
partner: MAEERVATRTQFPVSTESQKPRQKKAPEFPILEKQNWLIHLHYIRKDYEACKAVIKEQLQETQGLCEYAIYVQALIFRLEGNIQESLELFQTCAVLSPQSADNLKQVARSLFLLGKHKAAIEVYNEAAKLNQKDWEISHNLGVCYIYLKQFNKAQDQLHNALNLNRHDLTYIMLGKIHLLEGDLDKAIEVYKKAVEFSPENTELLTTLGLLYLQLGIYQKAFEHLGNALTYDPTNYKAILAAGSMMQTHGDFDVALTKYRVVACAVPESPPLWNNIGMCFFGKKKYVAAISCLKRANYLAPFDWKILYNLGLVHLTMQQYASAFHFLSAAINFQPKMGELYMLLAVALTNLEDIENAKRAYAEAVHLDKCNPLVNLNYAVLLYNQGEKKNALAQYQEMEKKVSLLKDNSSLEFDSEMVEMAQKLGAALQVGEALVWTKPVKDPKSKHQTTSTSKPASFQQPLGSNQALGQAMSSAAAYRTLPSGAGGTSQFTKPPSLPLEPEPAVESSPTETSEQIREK

Variants of: B1
Details: with bbs4_human BBS4, Q96RK4

Variant | effect of a mutation on the interaction
Q574E | with no effect
Q574K | with no effect
Q574A | with no effect
Q574R | disrupting interaction strength
I601K | with no effect
I601A | with no effect
I601E | with no effect
Q597R | disrupting interaction strength
Q597E | with no effect
Q597A | with no effect
Q597K | with no effect
L583A | with no effect
L583K | with no effect
L583E | with no effect
R598K | with no effect
R598A | with no effect
R598E | with no effect
D573K | with no effect
D573A | with no effect
D573E | with no effect
S603E | with no effect
S603N | disrupting interaction strength
S603K | with no effect
S603A | with no effect
T589A | disrupting interaction strength

Variant | effect of a mutation on the interaction
T589E | with no effect
T589K | with no effect
T589I | disrupting interaction strength
A592K | with no effect
A592E | with no effect
T595E | with no effect
T595A | with no effect
T595K | with no effect
A586K | with no effect
A586E | with no effect
S596K | with no effect
S596A | with no effect
S596E | with no effect
G585A | with no effect
G585K | with no effect
G585E | with no effect
F580A | with no effect
F580K | with no effect
F580E | with no effect
R600E | with no effect
R600K | with no effect
R600A | with no effect
R600G | disrupting interaction strength
M578E | with no effect
M578K | with no effect

Variant | effect of a mutation on the interaction
M578A | with no effect
F582A | with no effect
F582K | with no effect
F582E | with no effect
S593E | with no effect
S593A | with no effect
S593K | with no effect
R587E | with no effect
R587K | with no effect
R587A | with no effect
R587T | disrupting interaction strength
Q602E | with no effect
Q602A | with no effect
Q602K | with no effect
V577K | with no effect
V577E | with no effect
V577A | with no effect
G584E | disrupting interaction strength
G584A | with no effect
G584K | with no effect
Y599E | with no effect
Y599A | with no effect
Y599K | with no effect
D572E | with no effect
D572N | disrupting interaction strength

Variant | effect of a mutation on the interaction
D572K | with no effect
D572A | with no effect
K594E | with no effect
K594A | with no effect
I588A | with no effect
I588E | with no effect
I588K | with no effect
V590A | with no effect
V590K | with no effect
V590E | with no effect
H581A | with no effect
H581K | with no effect
H581E | with no effect
G579K | with no effect
G579E | with no effect
G579A | with no effect
L591K | with no effect
L591E | with no effect
L591A | with no effect
V575A | with no effect
V575K | with no effect
V575E | with no effect
N576K | with no effect
N576A | with no effect
N576E | with no effect

Further lines, results first:

effect of a mutation on the interaction | Variant
with no effect | R619K
with no effect | R619E
with no effect | R619A
with no effect | K626A
with no effect | K626E
with no effect | E622K
with no effect | E622A
with no effect | Y623K
with no effect | Y623A
with no effect | Y623E
with no effect | Q621A
with no effect | Q621K
with no effect | Q621E
with no effect | L609K
with no effect | L609E
with no effect | L609A
with no effect | Q627K
with no effect | Q627E
with no effect | Q627A
with no effect | V629E
with no effect | V629A
with no effect | V629K
disrupting interaction strength | V629I
with no effect | L611E
disrupting interaction strength | L611F
with no effect | L611K
with no effect | L611A

effect of a mutation on the interaction | Variant
disrupting interaction strength | L611C
with no effect | F606E
with no effect | F606K
with no effect | F606A
with no effect | L620A
disrupting interaction strength | L620P
with no effect | L620K
with no effect | L620E
with no effect | E615K
with no effect | E615A
with no effect | Q605K
with no effect | Q605E
with no effect | Q605A
disrupting interaction strength | I617T
with no effect | I617A
with no effect | I617K
with no effect | I617E
with no effect | F624E
with no effect | F624A
with no effect | F624K
with no effect | L616K
with no effect | L616E
with no effect | L616A
disrupting interaction strength | L616P
with no effect | D608A
with no effect | D608E
with no effect | D608K

effect of a mutation on the interaction | Variant
with no effect | W610A
with no effect | W610E
with no effect | W610K
with no effect | N614A
with no effect | N614E
with no effect | N614K
with no effect | I612K
with no effect | I612A
with no effect | I612E
with no effect | G628A
with no effect | G628K
with no effect | G628E
with no effect | E604A
with no effect | E604K
with no effect | E607K
with no effect | E607A
with no effect | E625K
with no effect | E625A
with no effect | L618K
with no effect | L618A
with no effect | L618E
with no effect | T613A
disrupting interaction strength | T613I
with no effect | T613K
with no effect | T613E
